# Reference: the supplement of paper PMC12764529
# ± gives the half width of the 95% confidence interval.
# Tests used:
# [1] = folding stability dG unfold (combined trypsin and chymotrypsin); higher = more stable
# Method: (§1)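 Folding stability of de novo designed mini-proteins (<80 aa, no Cys; designed by TrROS, TrMRF, ProteinMPNN and the joint model) was measured by cDNA display proteolysis with trypsin and chymotrypsin. Each protease was used at 11 concentrations in a threefold dilution series plus a no-protease condition. K50 was inferred by Bayesian fitting of sequencing counts, and dG unfold was derived against a sequence-predicted unfolded-state K50 (Tsuboyama et al. method). Sequences shown include variable-length N-terminal GS-type padding (SAGGSAGG...) inside a display construct carrying a PA tag. Rows were kept only if the AF2 dimer inter-PAE was >15, to exclude likely homo-oligomers.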
# [2] = folding stability dG unfold from chymotrypsin proteolysis; higher = more stable
# Method: as §1
Sequence,folding stability dG unfold [1] [kJ/mol],folding stability dG unfold [2] [kJ/mol]
AARSVDVEVEELSTVTPAGGRTRLLRVRAYVPETGRTAEVPYRAVLLPDGSERPFGTAEELADRIARLLVSS [r1_77_TrMRF],-0.156 ± 0.502,0.76 ± 0.711
PPVGPDAPVTPTTTPTPSGKTVTTTDRPLRREVTTTDPSTGTYTVTLTETDAAGRVLATRTETLSPEEVAAS [r1_380_JUSTAS],-2.26 ± 1.3,-0.33 ± 1.51
QIPPGAKVEFGNKEIEVPPGKELMIFNGHIMTQDDMEDMMKNMPDGMEMYRYKVEDNKGKIDKVRRMRMKPS [r1_304_TrROS],< -4.18,-0.426 ± 2.38
SAAKPVVIEVGFDGKPVTVVVYPNPGRVRAYVPATNAVSEATVGEDGEVNLLLYNPADGKPLPANITVPSAG [r14_656_TrMRF],< -4.18,-4.07 ± 1.63
SADKEAVRKIAEKFMQEPGFEPRGISPDGHIMFRPPGQGRMYRIDIDVEKDNDGLDVKIPDIEPVPMPDSAG [r14_20_TrROS],< -4.18,-0.116 ± 1.3
SAGDIEIEVEELGEGYKKITIRIKVDSIEEAIKEVEEIVRDFFSEEAEIVEIKIDPEKGIVEAVVIVPESAG [r5_810_TrMRF],–,14.2 ± 1.67
SAGDYDVEKDPDGYRVEHKNGDKRYVPPVPPPIPVVMIPIKDPEDLDEFANELGLNITDISDDWITMPASAG [r5_328_TrROS],-0.661 ± 1.13,1.77 ± 0.544
SAGGAKVTEVKVENGYVTVTVDGKLVAKAPPPPPPPKVRVRNADGEEEERSLEDLLAENPENLEIELESAGG [r13_802_TrROS_Hall],-0.161 ± 1.17,1.5 ± 0.418
SAGGAPDIPILTASYSPDGVLYSSTTTPINGTLHYFPEDNPVVLATDPATGLTVPVGTLEDVKRLIASAGGS [r8_232_TrMRF],-1.55 ± 0.795,0.869 ± 0.586
SAGGAPIPTVSTRTTPLPGGSSRTTTTTTYTFPETGTVYTATTTTTASPGGSPTTTATTTTTALAAASAGGS [r16_113_JUSTAS],-2.12 ± 0.962,0.277 ± 1.09
SAGGAPLAERTEPLPDGRTVRRVLEYDPEKRTVRVRTERWAPDGAAEPAEEVLDVPESATSPEFLLASAGGS [r8_461_JUSTAS],< -4.18,-2.54 ± 0.879
SAGGAPVHLDTTATTIEPLPTGGPVLRVETRFPDGSTRTGDFASREELLARLEASPDAATIRLAAVASAGGS [r16_757_JUSTAS],0.851 ± 0.402,3.75 ± 0.234
SAGGDARVARARIRLTRPFPDEDGVVRWEPVVPPGDPVEVGLVLEDDTLVANAVFDGRPVLATVRLESAGGS [r16_500_TrMRF],< -4.18,-1.7 ± 1.13
SAGGDPEEQNKMMERMEKMKPIEPEPVRIPNGIEIEYWPAYGFVEIETWYRDPDGEPKPIGEGWVPVSAGGS [r16_243_TrROS],-0.616 ± 0.502,1.2 ± 0.393
SAGGEPGVSAEEAAERLRRELGLPGLERVLEVRLTRAVGDPAGRPPEAESLEVEVEVSPEVRERLAALSAGG [r13_552_JUSTAS],0.0334 ± 0.285,2.51 ± 0.213
SAGGEPRLGRVLLDIDIAVDPERAEREEDREEALERALEIAERAEARLRELDPDVPVVVNIRLLDVGSAGGS [r8_183_TrMRF],1.29 ± 0.711,2.41 ± 0.13
SAGGEVPVSAEAAAAYDRAVAEGGGGATVPVETPGGRVIVYDPAGTATVLGDDPRTFPLAEVTAFAPSAGGS [r16_664_JUSTAS],1.03 ± 0.301,3.86 ± 0.247
SAGGGMGSSMKAKVEEEIPELKAADSTKVEITVTVTETRSFALPGGELATTTTTTTKTLEVEVPEEESAGGS [r8_203_JUSTAS],-0.906 ± 1.42,0.87 ± 1.09
SAGGGMSLTTTTLTFSIDEVDPEELYEELSKKGVTVYSGGKPSNPEEGMEALLKAHPNSSYTVLTRLSAGGS [r8_38_JUSTAS],< -4.18,-2.02 ± 2.26
SAGGSAGGSAGGKTITLDELRENFPPGYQIRDNNGKQHRINANEPIEEGDPIEIVSKDDISAGGSAGGSAGG [r7_507_TrROS],–,-0.864 ± 0.711
SAGGSAGGSAGGPVIPKDVKVKVIFSNGEVAELEVDSVDDLQKKLNVPIPPNVNLVVSRGSAGGSAGGSAGG [r7_223_TrMRF],–,-3.18 ± 1.55
SAGGSAGGSAGGSMVITIEYTGSVEDLIKKLKEEGLDVKVLEVKFDPKTGKYTVTLEVKSAGGSAGGSAGGS [r4_315_JUSTAS],–,17.7 ± 0.837
SAGPLKPGKTIEVPMEFTSPSDIVDELEKLPGIKDIEPTGIEPEPNPDGPPRIRVPFTFKIPKDGEPLSAGG [r19_221_TrROS],< -4.18,–
SAGPNFQIKKVEHKGGKIEIPIRLPNGRPFTARIKVEKRPDPDGNDRPRTKIEISEDALKEYIPPDLIKSAG [r5_462_TrROS],< -4.18,–
SAGPNPGEPLTVVTETSTEKVPTSSGRAVPVTTSTASNGTVIEKFPDGKVLVFEPGKGPENKTVLPEVSAGG [r19_199_JUSTAS],< -4.18,–
SAGSEIYEAAKAGKKATVPVETTLTEVTEESVTPLGGPTLKAREVARTTFNAKLTKFDPKTGKITTDLPSAG [r5_5_JUSTAS],< -4.18,–
SAGSVTATITLPSGETVTVDVAPDEERILTTPEGRLLRLTDVRPGAVAFTEGENFVPDEDGNLVPLSLLSAG [r5_417_JUSTAS],< -4.18,–

Sequence,folding stability dG unfold [1] [kJ/mol],folding stability dG unfold [2] [kJ/mol]
SAGVPVDLHHDPKGVELATSTSYTPSGEPVGSSSSTHTVPGTGTPVSVYSPVYDDGAGLITRTYLAKLSAGG [r19_185_JUSTAS],< -4.18,–
SAGWKIKIYPPNGQPQEIPIEDAKEIAEELAEQGNVQITPDGDIYIPFPMKDPEDGKPHQMYIQIERDKSAG [r5_243_TrROS],< -4.18,–
SAKITITLPNGKKIEIELPEGYEIVEVTFDKETGVITIKVKNKETGKEYKITLTFNEDGSLTISIEEVDSAG [r14_311_TrROS_Hall],> 25.1,–
SAMDAKELAEEIADEFAPKFPNIKPKKVTVEPTGDHYEGNIEWEMPNGRPMRVEVTVEKDGNIEDIEFHSAG [r14_719_TrROS],< -4.18,–
SAMPLSELEFVEERVFPDPPVRISVYRLPSPGVWVVPVLEPGTGRPRLVELEAADGVLDEEEVRAAVLESAG [r14_948_JUSTAS],< -4.18,–
SAMSPELEELLAQLKAAAEATTDVSVFATDAAGNLRSIGPVTVTGPATSLAELRPELAARPVARVELVGSAG [r14_318_JUSTAS],< -4.18,–
SAPEVSVEEEEEEITDPVTGEKTTVYKITTKITLPDPNSSKKVTLTKPVIVEKTKSGTKVTEKPVFLLLSAG [r14_339_JUSTAS],< -4.18,–
SASSTLTFTLPRYTVNKVYDKEGKPVPVEITPVPTLEVTATTLPDGTVVVTIGDETRTYPPGVSPEELLSAG [r14_909_JUSTAS],< -4.18,–
SASVVDLETDGSMSVEEVVERFKKENPNVKEVKVTTEALPDEPKYRITLTITEDKGKTEENLKKTKELKSAG [r14_645_JUSTAS],< -4.18,–
SATTTTETLPDGGVLTTTTLPDGSPATGLIDPANGAPFTATHPNGLRTVWSQSPSGKVTTLSTTNVPPSSAG [r14_877_JUSTAS],< -4.18,–
SDEVSRPVDVRYYITLTEPPTSRPRRGPTDELEVESERPVTVTEMPAGQEEAVRAELEPRGVAVSVTPVVSA [r9_1209_JUSTAS],< -4.18,–
SFKLPEGEEREFRLPDVPIEIEVDDGPGMIKINIYPPENPGKPVFEHEVPPGEIKPIEIPPELRDAMKKQSA [r9_1051_TrROS],< -4.18,–
SIEITFRHDNYRVPVKIDPDDPKIKIEVYPDPENGEMQPLTEEDMENFAQEIADELREQRKQQRKEGKPPSA [r9_368_TrROS],< -4.18,–
SKSRPIEVEFRMPYPNGGPMRMRATVLINPDNGKIGIPMRMETPGKEREYPLPPSMMNNLAKTVLDKLGLSA [r9_1136_TrROS],-3.3 ± 3.39,–
SLEELAKAIAEKLGLPVEDVEVRVEKEVDEETGEERLRVTVLIKVDGKTYLIEIDLETGEIVEIKPLEDLSA [r9_1219_TrROS_Hall],–,19.6 ± 0.962
SMTVITAEPNLPPEKKAAVEAVRERVKANPDKPMDADEIKEFIKEEFGDPNFTILKVTIIPKAPPVVALSSA [r9_620_JUSTAS],< -4.18,–
SNMPIFVRIEHNDGKEVEIPIKGSREQLKDNIQEEIQEYAQENGHKPRSIKVEVYDFGNNQEQTRTIPVKSA [r9_1193_TrROS],< -4.18,–
SNTIMIMANVPPGPVRIKIEPKNGRRYEMPIPPGEPVMFHIPIPPGLPPGNKWKIEVENPDNGKEQEKDFSA [r9_275_TrROS],< -4.18,–
SPNVRPYNFKIRDPNKEIEVPVWQPPDGPPMVNIKFKDPGKEVEIPFPMDDPEELLEDFAPDGYKIELTWSA [r9_384_TrROS],< -4.18,–
SPTLPFPFPDGHPYMIHLNPEKNEIHIHNPESGRPYRIKVPGGKERRIPAGADSLDELKDLPPLKIEPMPSA [r9_205_TrROS],< -4.18,–
SSAEEVARARFEAAGWDWRPLARDPVKRTVRFEVRPPDRPPRLYEVVVDPSRDTVNLEEDPATGRVVVPGSA [r9_1119_JUSTAS],< -4.18,–
SSDDKEEQKKRQKAQAKPKPKMEPVWVPIEVRDPDNGRPFEIPVRMYRTPNGKIEPLPEEELKDWAKDLFSA [r9_1056_TrROS],< -4.18,–
SSVKIEEKPLPDGTILVTITTPPENPEEVAEKVKEEVKAPVTVTSVEEVELEEGEKPLKVVKITIEVDKASA [r9_431_JUSTAS],< -4.18,–
SSVNWKVLETKEEPETVVTLLENPENPELIVEVPVKRFEDPDSERREVTKTVWLPATGETLETEPAVIPLSA [r9_18_JUSTAS],< -4.18,–
STLENIEYIKLPKNKTLPLPGGETISPDEEIAIDLDKKKYINKEELEELKKKIEEELEKKKPKENPKNLISA [r9_517_JUSTAS],< -4.18,–
SYPRDPSGKITAKITITRDPDGIYRAEIDVVDKDNKPLARASAPYENPYPGVARLKEEAEALAEELEKKKSA [r9_739_TrMRF],< -4.18,–
